Consider 1 substance from US8865473B2, “Luminescence detecting apparatuses and methods” (Applied Biosystems, LLC, priority 1999, dated 2014).

The test has as its target T1, Orexin 2 Receptor (Homo sapiens, UniProt O43614).
T1 construct: host or cells: CHO cells co-expressing aequorin (CHO-Aeq-OX2-A2)
T1 sequence (O43614 1-444): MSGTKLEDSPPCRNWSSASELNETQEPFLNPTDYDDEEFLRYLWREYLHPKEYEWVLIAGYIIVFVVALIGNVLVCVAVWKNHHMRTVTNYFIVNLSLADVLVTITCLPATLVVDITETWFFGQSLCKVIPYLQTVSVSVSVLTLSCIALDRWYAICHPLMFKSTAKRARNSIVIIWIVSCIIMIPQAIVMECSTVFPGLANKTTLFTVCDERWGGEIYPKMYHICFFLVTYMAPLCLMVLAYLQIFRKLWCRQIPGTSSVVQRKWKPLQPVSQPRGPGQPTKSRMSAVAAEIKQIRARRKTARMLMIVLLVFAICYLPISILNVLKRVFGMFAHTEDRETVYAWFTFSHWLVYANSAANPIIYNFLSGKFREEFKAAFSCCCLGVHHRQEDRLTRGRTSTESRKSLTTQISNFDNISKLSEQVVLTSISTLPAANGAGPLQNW
Put plainly: Aequorin luminescence agonist assay in CHO-Aeq-OX2-A2 cells on NorthStar. It counts as cell-based. Particulars: coelenterazine h +/- 0.6 μM BAPTA-AM 4 hours, light integrated 20 seconds, unchanged in the presence of BAPTA-AM, read-out: reported EC50 for Orexin B. The procedure: CHO-Aeq-OX2-A2 cells (Euroscreen) were loaded with coelenterazine h+/−0.6 μM BAPTA-AM for 4 hours. The peptide agonist Orexin B was injected into the wells, and the emitted light was integrated for 20 seconds on the NorthStar™.

One may read the EC50 as the concentration giving half of the maximal effect. Turning to Orexin B, the EC50 came to 0.75 nM.
